B1: GB235-019 recombinant full-length IgG1 isotype antibody (wild type) (antibody, V domains shown)
VH: EVQLVQSGAEVKKPGAPVKVSCKASGYTFTSYDINWVRQATGQGLEWMGWMNPNSGNTGYAQKFQGRVTMTRNTSISTAYMELSSLRSEDTAVYYCARGYYLSRGDFWGQGTLVTVSS
VL: DIQMTQSPSSVSASVGDRVTITCRASQGISSWLAWYQQKPGKAPKLLIYAASSLQSGVPSRFSGSGSGTDFTLTISSLQPEDFATYYCQQANSFPLTFGGGTKVEIKR
modifications: N-linked glycan at Asn73 (Fab framework region 3)
notes: Full-length IgG1 expressed in FreeStyle 293F cells; Derived from scFv clone WG1-019; also called GB235-019WT; GB235-019 wild-type antibody
B2: GB235-019N73D mutated antibody (antibody, human IgG1, kappa, V domains shown)
VH: B1 VH with N73D
VL: B1 VL
notes: full-length IgG1
B3: GB235-019N73Q mutated antibody (antibody, human IgG1, kappa, V domains shown)
VH: B1 VH with N73Q
VL: B1 VL
notes: full-length IgG1
B4: GB235-019S75A mutated antibody (antibody, human IgG1, kappa, V domains shown)
VH: B1 VH with S75A
VL: B1 VL
notes: full-length IgG1; also called GB235-019575A

Residue numbers refer to the chain shown, from its start.

For the assay, the target named is T1, Human HER2 antigen (Sino Biological Inc., catalog number 10004-H08H) (human, UniProt P04626 23-652).
T1 construct: Bought antigen coated on the ELISA plate
Put plainly: ELISA on coated human HER2 antigen, anti-human IgG Fc-HRP detection. How it is done: Human HER2 antigen (purchased from Sino Biological Inc., catalog number: 10004-H08H) was diluted to 1 μg/ml using PBS buffer, and added to an ELISA plate at 100 μl/well to perform coating at 4° C. overnight. The plate was washed with PBST for four times, then 5% BSA (purchased from Amresco, USA, catalog number: 0332-100g, the solution being PBS) was added at 300 μl/well to perform blocking at room temperature for 1 hour. […] Each of the dilutions was added to an ELISA plate at 100 μl/well and incubated at room temperature for 1 hour. The plate was washed with PBST for four times, then HRP-labeled goat anti-human IgG Fc antibody (purchased from CalBiochem Inc., USA, catalog number: AP113A-K) was diluted at 1:10000 with PBS buffer, and added to the ELISA plate at 100 μl/well to perform incubation at room temperature for 1 hour. The plate was washed with PBST for four times, then a solution of 3,3′,5,5′-tetramethylbenzidine substrate (purchased from Tiangen Co., Ltd., catalog number: PA107-01) was added at 100 μl/well to perform incubation at room temperature for 15 minutes for visualization. A stop solution (1 M sulfuric acid) was added at 50 μl/well, and absorbance value was read at 450/630 nm wavelength on an M5 multi-functional ELISA plate (Molecular Devices Inc., USA).
On the technique in general: In an ELISA, binding on a coated surface is turned into a signal by an enzyme label.
For the molecule B1, the binding result is “binds”. As for B2, the entry is “binds”; as for B3, “binds”. For the molecule B4, the binding result was “binds”.

Source of the values: US20170037146A1 (GENOR BIOPHARMA, published 2017).
